Percent of dimers converted to capsids (the pair that is blocked) and stoichiometry N data for two substances are collected here from publication PMC6170708.

Test [1] concerns the target recombinant HBeAg dimer (construct Cp(−10) 149 C48A.C107A) (Hepatitis B virus (strain not stated)) (UniProt P03147). The experiment in a line: AUC.
For test [2], the target named is recombinant HBcAg assembly domain dimer (construct Cp1–149.C48A.C107A) (Hepatitis B virus (strain not stated)) (UniProt P03147). As to the kind of experiment: AUC.

On to “recombinant HBeAg dimer (construct Cp(−10) 149 C48A.C107A) (from UniProt P03147 1-149) (domain or fragment)”, for which the percent of dimers converted to capsids (the pair that is blocked) in test [1] was 40%.

Turning to “recombinant HBcAg assembly domain dimer (construct Cp1–149.C48A.C107A) (from UniProt P03147 1-149) (domain or fragment)”, the stoichiometry N in test [2] turned out to be 2.
